Data published in patent US20130136748A1 (Ablynx, published 2013).
Values joined by “and” are separate entries in the source; they are usually repeats but may differ in a detail not shown here. Equal values may be shown once. Read-outs that look alike come from different tables or passages of the source.

T1: cHER3ECD (Maccaca fascicularis HER3 extracellular domain) (Macaca fascicularis, UniProt P21860 20-643 (human entry))
T1 construct: also called cyno HER3ECD; cyno HER3-ECD
T1 chain: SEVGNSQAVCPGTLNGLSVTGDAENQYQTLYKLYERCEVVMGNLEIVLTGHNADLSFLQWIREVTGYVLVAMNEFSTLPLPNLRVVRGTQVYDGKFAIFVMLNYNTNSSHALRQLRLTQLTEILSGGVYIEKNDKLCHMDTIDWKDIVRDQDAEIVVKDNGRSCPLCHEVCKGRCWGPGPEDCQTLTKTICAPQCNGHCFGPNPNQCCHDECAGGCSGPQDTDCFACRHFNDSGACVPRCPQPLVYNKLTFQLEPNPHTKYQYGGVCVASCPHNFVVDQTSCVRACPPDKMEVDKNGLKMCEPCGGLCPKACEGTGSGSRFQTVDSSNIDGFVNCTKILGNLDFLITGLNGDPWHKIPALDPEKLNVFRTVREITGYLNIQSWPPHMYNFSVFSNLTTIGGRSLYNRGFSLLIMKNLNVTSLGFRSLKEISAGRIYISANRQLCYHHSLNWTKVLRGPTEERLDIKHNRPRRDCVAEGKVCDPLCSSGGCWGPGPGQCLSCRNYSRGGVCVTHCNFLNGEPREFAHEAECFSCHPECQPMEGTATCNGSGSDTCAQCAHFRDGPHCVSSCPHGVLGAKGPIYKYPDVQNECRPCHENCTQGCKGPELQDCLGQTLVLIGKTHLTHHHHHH

T2: Chimeric chicken Her3-human domain 2 (AA207-328 human) (chicken/human chimera)
T2 construct: Transmembrane and extracellular regions, on HEK293 cells
T2 chain: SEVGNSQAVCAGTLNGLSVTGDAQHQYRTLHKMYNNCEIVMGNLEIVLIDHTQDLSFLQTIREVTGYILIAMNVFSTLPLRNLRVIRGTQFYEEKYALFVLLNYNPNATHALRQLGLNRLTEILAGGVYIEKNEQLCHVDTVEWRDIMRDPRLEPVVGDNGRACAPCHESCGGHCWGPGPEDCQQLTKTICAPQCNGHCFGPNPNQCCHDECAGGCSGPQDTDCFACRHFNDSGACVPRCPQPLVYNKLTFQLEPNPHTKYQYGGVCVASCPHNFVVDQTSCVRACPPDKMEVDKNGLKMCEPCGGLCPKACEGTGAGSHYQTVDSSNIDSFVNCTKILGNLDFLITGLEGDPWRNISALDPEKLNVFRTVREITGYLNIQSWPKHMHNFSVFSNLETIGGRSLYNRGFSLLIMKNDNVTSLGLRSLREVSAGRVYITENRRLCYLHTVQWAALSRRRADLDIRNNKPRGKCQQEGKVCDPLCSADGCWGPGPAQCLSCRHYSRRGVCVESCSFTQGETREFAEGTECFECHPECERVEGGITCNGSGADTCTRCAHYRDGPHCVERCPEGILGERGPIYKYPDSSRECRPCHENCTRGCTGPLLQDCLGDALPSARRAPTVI

B1: 18E08 (VHH)
VHH: EVQLVESGGGLVQPGGSLRLSCAASGTLFKINAMGWYRQAPGKQRELVALITSSDTTDYAESVEGRFTISRDNTWNAVYLQMNSLKPEDTAVYYCHSDHYSMGVPEKRVIMYGQGTQVTVSS
B2: 17B05 (VHH)
VHH: EVQLVESGGGLVQPGGSLRLSCAASGSIGGLNAMAWYRQAPGKERELVAGIFGVGSTRYADSVKGRFTISRDIAKNTVFLQMNSLNSEDTAVYYCRMSSVTRGSSDYWGQGTQVTVSS
notes: also called HER3MS17B05; HER3MS017B05

Columns and labels:
human HER2 [1] = target: T3, human HER2 (human, UniProt P04626 23-1255); test: FACS CHO-HER2, 667 nM
T3 construct: also called hHER2

human HER4 [2] = target: T4, human HER4 (human, UniProt Q15303 26-1308); test: FACS CHO-HER4, 222 nM
T4 sequence (Q15303 26-1308 limits assumed): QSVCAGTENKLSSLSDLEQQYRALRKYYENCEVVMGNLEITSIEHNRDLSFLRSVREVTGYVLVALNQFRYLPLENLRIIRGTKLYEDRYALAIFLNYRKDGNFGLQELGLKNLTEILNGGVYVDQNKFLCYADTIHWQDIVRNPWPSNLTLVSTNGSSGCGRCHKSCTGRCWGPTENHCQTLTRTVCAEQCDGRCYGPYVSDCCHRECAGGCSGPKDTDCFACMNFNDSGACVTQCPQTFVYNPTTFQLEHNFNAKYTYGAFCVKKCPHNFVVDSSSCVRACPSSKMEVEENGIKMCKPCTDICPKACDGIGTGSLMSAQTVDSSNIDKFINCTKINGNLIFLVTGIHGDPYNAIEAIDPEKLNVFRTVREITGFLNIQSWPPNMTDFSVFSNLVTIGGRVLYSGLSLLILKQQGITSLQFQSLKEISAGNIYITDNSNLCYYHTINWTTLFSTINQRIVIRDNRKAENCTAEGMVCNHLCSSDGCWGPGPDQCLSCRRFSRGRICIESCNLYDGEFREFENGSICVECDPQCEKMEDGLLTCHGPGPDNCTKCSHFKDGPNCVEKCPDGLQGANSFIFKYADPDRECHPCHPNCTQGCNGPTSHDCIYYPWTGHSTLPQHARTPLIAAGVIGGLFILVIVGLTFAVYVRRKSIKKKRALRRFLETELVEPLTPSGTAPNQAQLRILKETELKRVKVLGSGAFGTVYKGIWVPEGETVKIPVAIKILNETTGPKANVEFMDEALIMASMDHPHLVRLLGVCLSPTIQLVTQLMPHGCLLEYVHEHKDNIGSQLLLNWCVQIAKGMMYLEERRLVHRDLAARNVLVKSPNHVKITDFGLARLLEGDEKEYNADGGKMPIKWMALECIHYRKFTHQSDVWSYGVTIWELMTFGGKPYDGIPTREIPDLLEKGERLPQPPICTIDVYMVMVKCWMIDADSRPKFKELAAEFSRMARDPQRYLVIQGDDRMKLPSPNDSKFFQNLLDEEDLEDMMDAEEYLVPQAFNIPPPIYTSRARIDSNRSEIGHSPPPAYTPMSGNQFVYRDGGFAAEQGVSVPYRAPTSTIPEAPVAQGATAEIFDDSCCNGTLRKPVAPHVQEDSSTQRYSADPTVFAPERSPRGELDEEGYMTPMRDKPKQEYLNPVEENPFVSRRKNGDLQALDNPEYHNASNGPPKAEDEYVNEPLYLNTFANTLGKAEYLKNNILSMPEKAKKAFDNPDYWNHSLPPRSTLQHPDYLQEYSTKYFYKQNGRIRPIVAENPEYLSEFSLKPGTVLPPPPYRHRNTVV

hHER3 full length [3] = target: T5, hHER3 full length (human, UniProt P21860 20-1342); test: cell-based or functional assay
human HER1 [4] = target: T6, human HER1 (human, UniProt P00533 25-1210); test: FACS, CHO-HER1
T6 construct: also called EGFR; ErbB1

hHER3 full length [5] = target: T5, hHER3 full length; test: FACS, 400 nM, competitor 23F05-biotin
[6] = target: T7, hHER3 ECD (human HER3 extracellular domain) (human, UniProt P21860 20-643); test: ELISA, coated hHER3-ECD
T7 construct: also called recombinant HER3-ECD

hHER3 full length [7] = target: T5, hHER3 full length; test: FACS, 400 nM, competitor 17C08-biotin
hHER3 full length [8] = target: T5, hHER3 full length; test: FACS, 400 nM, competitor 04F10-biotin
human HER4 [9] = target: T4, human HER4; test: FACS CHO-HER4, 2000 nM
human HER2 [10] = target: T3, human HER2; test: FACS CHO-HER2, 222 nM
human HER1 [11] = target: T6, human HER1; test: FACS CHO-HER1, 222 nM
human HER2 [12] = target: T3, human HER2; test: FACS CHO-HER2, 2000 nM
hHER3 full length [13] = target: T5, hHER3 full length; test: cell-based or functional assay; remark: listed apart in the source
human HER1 [14] = target: T6, human HER1; test: FACS CHO-HER1, 667 nM
[15] = target: T1, cHER3ECD (Maccaca fascicularis HER3 …); test: ELISA, coated cHER3-ECD
hHER3 full length [16] = target: T5, hHER3 full length; test: FACS, 400 nM, competitor 21B02-biotin
hHER3 full length [17] = target: T5, hHER3 full length; test: FACS, 400 nM, competitor 04C07-biotin
[18] = target: T2, Chimeric chicken Her3-human domain 2 …; test: FACS, HEK293 with chimeric HER3
human HER2 [19] = target: T3, human HER2; test: FACS, CHO-HER2
hHER3 full length [20] = target: T5, hHER3 full length; test: FACS, 400 nM, competitor 18E08-biotin
[21] = target: T8, human HER3-Fc (R&D Systems, 348-RB) (human, UniProt P21860 20-643); test: SPR, HER3-Fc captured by anti-Fc
T8 construct: Bought; also called hHER3-Fc; Fc-HER3; Fc part of the bought chimera not given, not described

human HER4 [22] = target: T4, human HER4; test: FACS, CHO-HER4
human HER4 [23] = target: T4, human HER4; test: FACS CHO-HER4, 667 nM
human HER1 [24] = target: T6, human HER1; test: FACS CHO-HER1, 2000 nM
[25] = target: T8, human HER3-Fc (R&D Systems, 348-RB); test: HRG competition alphascreen
[26] = target: T7, hHER3 ECD (human HER3 extracellular …); test: SPR off rate on HER3-ECD
[27] = target: T8, human HER3-Fc (R&D Systems, 348-RB); test: HRG competition alphascreen; remark: listed apart in the source
hHER3 full length [28] = target: T5, hHER3 full length; test: cell-based or functional assay; remark: listed apart in the source
hHER3 full length [29] = target: T5, hHER3 full length; test: cell-based or functional assay; remark: listed apart in the source
[30] = target: T7, hHER3 ECD (human HER3 extracellular …); test: SPR off rate on HER3-ECD; remark: listed apart in the source
[31] = target: T8, human HER3-Fc (R&D Systems, 348-RB); test: HRG competition alphascreen; remark: listed apart in the source
hHER3 full length [32] = target: T5, hHER3 full length; test: FACS competition with HRG1-β1-EGF, CHO-HER3

MCF (human HER2 [1]) | MCF (human HER4 [2]) | IC50, HRG1-β1 induced pAkt, MCF-7 (hHER3 full length [3]) [M] | binding result (human HER1 [4]) | % competition (hHER3 full length [5]) [%] | EC50 [6] [nM] | % competition (hHER3 full length [7]) [%] | % competition (hHER3 full length [8]) [%] | MCF (human HER4 [9]) | MCF (human HER2 [10]) | MCF (human HER1 [11]) | MCF (human HER2 [12]) | IC50, HRG1-β1 induced pHER3, MCF-7 (hHER3 full length [13]) [M] | IC50, HRG1-β1 induced pHER3, MDA-MB468 (hHER3 full length [13]) [M] | MCF (human HER1 [14]) | EC50 [15] [nM] | % competition (hHER3 full length [16]) [%] | % competition (hHER3 full length [17]) [%] | binding result (human HER2 [19]) | % competition (hHER3 full length [20]) [%] | also measured | Binder
52 | 91 | 5.69e-08 | no binding (tested: 2000 nM) | 0 | 4.7 | 63 | 0 | 115 | 53 | 61 | 78 | 6.39e-08 | 1.01e-07 | 62 | 4.4 | 4 | 0 | no binding (tested: 2000 nM) | 86 | inhibition of HRG1-β1 induced pERK1/2, MCF-7 (hHER3 full length [3]): < 50 % inhibition; binding result [18]: binds; Kd [21]: 53.8 nM; kon [21]: 10400 M⁻¹ s⁻¹; binding result (human HER4 [22]): no binding (tested: 2000 nM); MCF (human HER4 [23]): 80; MCF (human HER1 [24]): 64 | B1
86 | 142 | 7.83e-09 | no binding (tested: 2000 nM) | 0 | 0.63 | 0 | 68 | 116 | 84 | 85 | 134 | 5.34e-09 | 2.79e-08 | 64 | 0.66 | 0 | 100 | no binding (tested: 2000 nM) | 0 | IC50, HRG1-β1 induced pERK1/2, MCF-7 (hHER3 full length [3]): 2.36e-09 M; IC50 [25]: 0.34 nM and 0.93 nM; koff [26]: 0.00018 s⁻¹ and 0.0002 s⁻¹; % inhibition [27]: 87%; IC50 [27]: 0.755 nM; IC50, EGF induced pHER3, CHO EGFR/HER3 (hHER3 full length [28]): 3.43e-10 M; IC50, TGFα induced pHER3, CHO EGFR/HER3 (hHER3 full length [28]): 8.15e-10 M; IC50, epiregulin induced pHER3, CHO EGFR/HER3 (hHER3 full length [28]): 2.48e-10 M; IC50 pHER3 blocking, HRG stimulated MCF7 (hHER3 full length [29]): 4.52e-09 M; koff [30]: 0.00018 s⁻¹ and 0.0002 s⁻¹; IC50 [31]: 0.78 nM; IC50 (hHER3 full length [32]): 33.4 nM; Kd [21]: 0.11 nM; kon [21]: 390000 M⁻¹ s⁻¹; binding result (human HER4 [22]): no binding (tested: 2000 nM); MCF (human HER4 [23]): 90; MCF (human HER1 [24]): 49 | B2
